# Results reported in patent publication US7910550B2, “Human kunitz-type inhibitor with enhanced antifibrinolytic activity” (STC.UNM, priority 2004, dated 2011).
# B1: R24K KD1: KD1 with lysine in place of arginine at position 24 (SEQ ID NO:3) (protein)
# chain: DAAQEPTGNNAEICLLPLDYGPCKALLLRYYYDRYTQSCRQFLYGGCEGNANNFYTWEACDDACWRIEKVPKV
# modifications: mutated active domain
# How the values were obtained:
# HT-1080 cells = assay: Gene expression by Oligo GEARRAY Human Apoptosis Microarray; format: cell-based
# Experimental: To study the gene expression profiles of proteins involved in apoptosis, approximately 2×10^7 cells were grown to confluence and treated with either recombinant R24K KD1 or vehicle for 24 hours and 48 hours. After the treatment, the cells were harvested and total RNA was purified using the RNEASY RNA extraction kit according to the manufacturer's instruction. The purified RNA samples were further digested using an on-column DNase digestion with RNase-free DNase-I to ensure complete removal of any contaminating genomic or mitochondrial DNA. The pathway-specific microarray was carried out using 3 μg of total RNA to generate biotin-labeled cRNA using TRUELABELING-AMP from SABiosciences Corp. (Frederick, Md.). TRUELABELING-AMP 2.0 from (SABiosciences Corp., Frederick, Md.) was used to rapidly amplify and label antisense RNA for hybridization. Three micrograms of labeled cRNA was used for hybridization with an Oligo GEARRAY Human Apoptosis Microarray consisting of 112 genes. Following incubation with CDP-STAR, the chemiluminescent array image was captured by a cooled CCD camera (Alpha Innotech Corp., San Leandro, Calif.). All images were saved as electronic files in a grayscale, 8 or 16 bit TIFF file format and analyzed using a GEARRAY Expression Analysis Suite. Data were normalized using minimum value background subtraction and interquartile normalization. Minimum value is the lowest density spot on the array and the average across the spot was used as the background correction value and is subtracted from the intensity value for each spot on the array. Interquartile uses only genes between the 25% and 75% quartile and the average intensity value of these spots is used for normalization of all the genes (intensity value of each gene is divided by this mean intensity value). The pUC19 plasmid was used as the negative control in the array.
# [1] = tested on: human colorectal cancer cell line (Colo-205); assay: Caspase activation in Colo-205 cells; format: cell-based; conditions: 48 hour exposure, 1 μM
molecule,measurement,setting,value
B1,"Fold change BAG3, Group 2 vs. Group 1",HT-1080 cells; Group 2 vs. Group 1,0.60 fold
same,"Fold change BAK1, Group 2 vs. Group 1",HT-1080 cells; Group 2 vs. Group 1,1.78 fold
same,"Fold change BAX, Group 2 vs. Group 1",HT-1080 cells; Group 2 vs. Group 1,3.09 fold
same,"Fold change BCL2, Group 2 vs. Group 1",HT-1080 cells; Group 2 vs. Group 1,0.65 fold
same,"Fold change BCL2A1, Group 2 vs. Group 1",HT-1080 cells; Group 2 vs. Group 1,2.02 fold
same,"Fold change BCLAF1, Group 2 vs. Group 1",HT-1080 cells; Group 2 vs. Group 1,0.74 fold
same,"Fold change BFAR, Group 2 vs. Group 1",HT-1080 cells; Group 2 vs. Group 1,0.34 fold
same,"Fold change BNIP3, Group 2 vs. Group 1",HT-1080 cells; Group 2 vs. Group 1,1.71 fold
same,"Fold change CARD6, Group 2 vs. Group 1",HT-1080 cells; Group 2 vs. Group 1,2.31 fold
same,"Fold change CARD11, Group 2 vs. Group 1",HT-1080 cells; Group 2 vs. Group 1,1.54 fold
same,"Fold change CASP4, Group 2 vs. Group 1",HT-1080 cells; Group 2 vs. Group 1,1.18 fold
same,"Fold change CASP9, Group 2 vs. Group 1",HT-1080 cells; Group 2 vs. Group 1,1.50 fold
same,"Fold change CD40, Group 2 vs. Group 1",HT-1080 cells; Group 2 vs. Group 1,4.74 fold
same,"Fold change CIDEB, Group 2 vs. Group 1",HT-1080 cells; Group 2 vs. Group 1,2.25 fold
same,"Fold change GADD45A, Group 2 vs. Group 1",HT-1080 cells; Group 2 vs. Group 1,1.88 fold
same,"Fold change LTA, Group 2 vs. Group 1",HT-1080 cells; Group 2 vs. Group 1,75.31 fold
same,"Fold change LTBR, Group 2 vs. Group 1",HT-1080 cells; Group 2 vs. Group 1,1.38 fold
same,"Fold change MCL1, Group 2 vs. Group 1",HT-1080 cells; Group 2 vs. Group 1,1.46 fold
same,"Fold change TNFRSF1B, Group 2 vs. Group 1",HT-1080 cells; Group 2 vs. Group 1,1.59 fold
same,"Fold change TNFRSF10B, Group 2 vs. Group 1",HT-1080 cells; Group 2 vs. Group 1,1.68 fold
same,"Fold change TNFRSF25, Group 2 vs. Group 1",HT-1080 cells; Group 2 vs. Group 1,1.27 fold
same,"Fold change TRADD, Group 2 vs. Group 1",HT-1080 cells; Group 2 vs. Group 1,1.92 fold
same,"Fold change TRAF4, Group 2 vs. Group 1",HT-1080 cells; Group 2 vs. Group 1,3.79 fold
same,"Fold change BAG3, Group 3 vs. Group 1",HT-1080 cells; Group 3 vs. Group 1,0.44 fold
same,"Fold change BAK1, Group 3 vs. Group 1",HT-1080 cells; Group 3 vs. Group 1,1.74 fold
same,"Fold change BAX, Group 3 vs. Group 1",HT-1080 cells; Group 3 vs. Group 1,3.97 fold
same,"Fold change BCL2, Group 3 vs. Group 1",HT-1080 cells; Group 3 vs. Group 1,0.12 fold
same,"Fold change BCL2A1, Group 3 vs. Group 1",HT-1080 cells; Group 3 vs. Group 1,2.09 fold
same,"Fold change BCL2L13, Group 3 vs. Group 1",HT-1080 cells; Group 3 vs. Group 1,1.61 fold
same,"Fold change BCLAF1, Group 3 vs. Group 1",HT-1080 cells; Group 3 vs. Group 1,0.41 fold
same,"Fold change BFAR, Group 3 vs. Group 1",HT-1080 cells; Group 3 vs. Group 1,0.25 fold
same,"Fold change BNIP3, Group 3 vs. Group 1",HT-1080 cells; Group 3 vs. Group 1,1.69 fold
same,"Fold change CARD6, Group 3 vs. Group 1",HT-1080 cells; Group 3 vs. Group 1,3.62 fold
same,"Fold change CARD11, Group 3 vs. Group 1",HT-1080 cells; Group 3 vs. Group 1,4.36 fold
same,"Fold change CASP4, Group 3 vs. Group 1",HT-1080 cells; Group 3 vs. Group 1,2.28 fold
same,"Fold change CASP9, Group 3 vs. Group 1",HT-1080 cells; Group 3 vs. Group 1,3.22 fold
same,"Fold change CD40, Group 3 vs. Group 1",HT-1080 cells; Group 3 vs. Group 1,63.39 fold
same,"Fold change CIDEB, Group 3 vs. Group 1",HT-1080 cells; Group 3 vs. Group 1,1.77 fold
same,"Fold change GADD45A, Group 3 vs. Group 1",HT-1080 cells; Group 3 vs. Group 1,5.56 fold
same,"Fold change LTA, Group 3 vs. Group 1",HT-1080 cells; Group 3 vs. Group 1,15.94 fold
same,"Fold change LTBR, Group 3 vs. Group 1",HT-1080 cells; Group 3 vs. Group 1,1.88 fold
same,"Fold change MCL1, Group 3 vs. Group 1",HT-1080 cells; Group 3 vs. Group 1,2.20 fold
same,"Fold change TNFRSF1B, Group 3 vs. Group 1",HT-1080 cells; Group 3 vs. Group 1,2.10 fold
same,"Fold change TNFRSF10B, Group 3 vs. Group 1",HT-1080 cells; Group 3 vs. Group 1,1.71 fold
same,"Fold change TNFRSF25, Group 3 vs. Group 1",HT-1080 cells; Group 3 vs. Group 1,2.08 fold
same,"Fold change TRADD, Group 3 vs. Group 1",HT-1080 cells; Group 3 vs. Group 1,2.07 fold
same,"Fold change TRAF4, Group 3 vs. Group 1",HT-1080 cells; Group 3 vs. Group 1,4.05 fold
same,caspase activation,[1],caspase activation
